Data taken from US6682898B2, “High-throughput screening assays for modulators of STAT4 activity” (Tularik Inc., priority 1998, dated 2004).
Non-standard residues stand in square brackets, D forms with d. No end group written: not given here. pY = N[C@@H](Cc1ccc(OP(=O)(O)O)cc1)C(=O)O

T1: STAT6 (UniProt P42226 1-847, limits assumed)
T1 construct: also called STAT6 polypeptide
T1 sequence (looked up): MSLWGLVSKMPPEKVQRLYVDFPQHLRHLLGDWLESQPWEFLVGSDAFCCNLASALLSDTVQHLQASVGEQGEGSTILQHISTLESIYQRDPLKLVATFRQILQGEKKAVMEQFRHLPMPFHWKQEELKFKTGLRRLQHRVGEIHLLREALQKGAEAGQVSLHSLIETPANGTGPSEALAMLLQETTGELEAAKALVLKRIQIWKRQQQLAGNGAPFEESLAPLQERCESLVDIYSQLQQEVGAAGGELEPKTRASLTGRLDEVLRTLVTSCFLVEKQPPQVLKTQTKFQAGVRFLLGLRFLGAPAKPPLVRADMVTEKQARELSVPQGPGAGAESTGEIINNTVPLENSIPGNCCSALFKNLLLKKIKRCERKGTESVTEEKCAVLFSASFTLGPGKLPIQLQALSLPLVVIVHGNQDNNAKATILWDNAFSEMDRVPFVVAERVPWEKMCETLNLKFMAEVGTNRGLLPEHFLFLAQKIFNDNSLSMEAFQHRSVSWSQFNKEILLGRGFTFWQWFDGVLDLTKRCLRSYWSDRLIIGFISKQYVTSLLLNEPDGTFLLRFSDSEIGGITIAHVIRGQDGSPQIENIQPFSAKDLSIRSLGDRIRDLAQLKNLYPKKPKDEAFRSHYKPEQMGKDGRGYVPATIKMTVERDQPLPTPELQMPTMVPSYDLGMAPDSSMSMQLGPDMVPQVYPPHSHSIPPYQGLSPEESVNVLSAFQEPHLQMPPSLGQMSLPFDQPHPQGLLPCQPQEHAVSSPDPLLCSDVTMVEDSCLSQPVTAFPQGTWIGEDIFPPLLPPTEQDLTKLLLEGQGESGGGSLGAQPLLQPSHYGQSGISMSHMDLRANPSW

T2: STAT4 (UniProt Q14765 1-748, limits assumed)
T2 construct: also called STAT4 polypeptide
T2 sequence (looked up): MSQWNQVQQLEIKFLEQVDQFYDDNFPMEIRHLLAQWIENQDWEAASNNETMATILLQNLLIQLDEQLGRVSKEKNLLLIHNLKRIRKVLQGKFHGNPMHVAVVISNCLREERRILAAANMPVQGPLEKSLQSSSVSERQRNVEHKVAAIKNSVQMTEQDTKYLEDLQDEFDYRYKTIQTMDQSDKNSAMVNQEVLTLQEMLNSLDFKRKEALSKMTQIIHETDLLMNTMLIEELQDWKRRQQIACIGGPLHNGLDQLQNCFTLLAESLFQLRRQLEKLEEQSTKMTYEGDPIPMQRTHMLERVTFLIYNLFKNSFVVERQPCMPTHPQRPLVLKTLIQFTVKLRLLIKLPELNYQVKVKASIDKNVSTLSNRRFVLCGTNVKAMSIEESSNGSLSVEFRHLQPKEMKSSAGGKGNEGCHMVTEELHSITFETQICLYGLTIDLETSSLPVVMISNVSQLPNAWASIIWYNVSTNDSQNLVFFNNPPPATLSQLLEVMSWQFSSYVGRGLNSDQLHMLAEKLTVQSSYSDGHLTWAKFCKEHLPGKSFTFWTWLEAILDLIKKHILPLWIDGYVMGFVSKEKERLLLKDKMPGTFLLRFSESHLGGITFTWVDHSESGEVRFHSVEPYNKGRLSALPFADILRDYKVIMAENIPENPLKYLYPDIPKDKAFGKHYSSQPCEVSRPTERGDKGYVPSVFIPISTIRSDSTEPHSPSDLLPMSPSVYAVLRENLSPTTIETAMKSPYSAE


Legend:
STAT6 = molecular target: T1, STAT6; experiment: binding affinity of the phosphorylated receptor peptide for STAT6; method not stated at the table (paragraph 32 speaks of IC50)
STAT4 [1] = molecular target: T2, STAT4; experiment: concentration at 50% binding of the STAT protein to the phosphotyrosine peptide (Example 4)
STAT4 [2] = molecular target: T2, STAT4; experiment: binding affinity of the phosphorylated receptor peptide for STAT4; method not stated at the table (paragraph 32 speaks of IC50)

Molecule	BINDING AFFINITY (STAT4 [2]) [µM]	also measured
Ac-Y^PVPWQ-NH2 (peptide)	–	BINDING AFFINITY (STAT6): 1.5 µM
Ac-Y^PVPW-NH2 (peptide)	–	BINDING AFFINITY (STAT6): 1.2 µM
ASSGEEG[pY]KPFQDLI [ASSGEEGY^PKPFQDLI]	–	IC50 (STAT4 [1]): 30 µM
SHEG[pY]LPSNID (Native IL-12 receptor-derived phosphopeptide; also called IL-12 receptor peptide) [SHEGY^PLPSNID (IL-12 receptor)]	2.9	–
SHEG[pY]LPNNID [SHEGY^PLPNNID]	0.51	–
SHEG[pY]LPHNID [SHEGY^PLPHNID]	0.7	–
SHEG[pY]LPQNID [SHEGY^PLPQNID]	0.39	–
SHEG[pY]LPWNID [SHEGY^PLPWNID]	0.93	–
